Test results taken from patent US20030021792A1.

What was measured:
rat MadCam-1 (rat) [1] = target: rat MadCam-1 (rat) (UniProt O70540); experiment: Europium-labelled antibody injected in rat, time-resolved fluorescence of pancreas homogenate
rat MadCam-1 (rat) [2] = target: rat MadCam-1 (rat) (UniProt O70540); experiment: Europium-labelled antibody injected in rat, time-resolved fluorescence of small intestine homogenate
[3] = target: rat dipeptidyl peptidase IV (rat) (UniProt P14740); experiment: 125I-labelled antibody injected in rat, scintigraphy of tissues
UniProt P14740, sequence (P14740 whole entry R38A/Q470G): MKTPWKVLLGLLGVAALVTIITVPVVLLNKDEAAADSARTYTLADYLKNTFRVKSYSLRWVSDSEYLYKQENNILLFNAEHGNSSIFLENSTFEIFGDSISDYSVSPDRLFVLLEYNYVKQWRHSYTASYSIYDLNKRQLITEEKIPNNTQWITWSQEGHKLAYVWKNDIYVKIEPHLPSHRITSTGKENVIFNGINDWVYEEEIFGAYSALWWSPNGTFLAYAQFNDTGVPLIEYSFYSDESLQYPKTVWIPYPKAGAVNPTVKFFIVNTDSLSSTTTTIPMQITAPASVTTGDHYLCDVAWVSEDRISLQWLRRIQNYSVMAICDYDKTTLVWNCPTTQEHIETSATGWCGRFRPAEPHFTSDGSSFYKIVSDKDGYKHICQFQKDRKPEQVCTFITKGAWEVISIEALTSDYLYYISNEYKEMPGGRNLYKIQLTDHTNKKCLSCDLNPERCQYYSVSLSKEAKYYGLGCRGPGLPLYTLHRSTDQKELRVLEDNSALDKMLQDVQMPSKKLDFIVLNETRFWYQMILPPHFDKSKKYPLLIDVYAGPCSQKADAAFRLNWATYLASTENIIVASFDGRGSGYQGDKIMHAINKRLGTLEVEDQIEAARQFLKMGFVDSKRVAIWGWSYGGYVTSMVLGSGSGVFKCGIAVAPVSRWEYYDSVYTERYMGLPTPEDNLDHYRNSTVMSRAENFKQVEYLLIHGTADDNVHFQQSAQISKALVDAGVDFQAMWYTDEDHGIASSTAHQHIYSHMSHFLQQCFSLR

[4] = target: rat dipeptidyl peptidase IV (rat) (UniProt P14740); experiment: Europium-labelled antibody injected in rat, time-resolved fluorescence of lung homogenate

UniProt O70540, sequence (O70540 20-394 limits assumed): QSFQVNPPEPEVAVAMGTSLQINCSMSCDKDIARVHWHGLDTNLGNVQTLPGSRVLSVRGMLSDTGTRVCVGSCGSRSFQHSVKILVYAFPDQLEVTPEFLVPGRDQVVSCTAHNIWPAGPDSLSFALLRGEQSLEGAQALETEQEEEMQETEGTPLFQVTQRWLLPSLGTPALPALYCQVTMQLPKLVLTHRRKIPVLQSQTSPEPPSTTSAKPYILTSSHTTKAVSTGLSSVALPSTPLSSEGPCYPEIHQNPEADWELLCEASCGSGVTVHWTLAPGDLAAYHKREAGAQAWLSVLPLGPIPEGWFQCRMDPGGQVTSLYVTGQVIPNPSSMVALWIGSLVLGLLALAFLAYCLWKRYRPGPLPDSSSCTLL

Row | percent of injected dose localized to the pancreas (5 µg dose, 6 hours) (% of injected dose) (rat MadCam-1 (rat) [1]) | percent of injected dose in the small intestine (5 µg dose, 6 hours) (% of injected dose) (rat MadCam-1 (rat) [2]) | antibody per gram of lung tissue (5 µg dose, 5 minutes) (µg per gram of tissue) [3] | antibody per gram of lung tissue (5 µg dose, 8 hours) (µg per gram of lung tissue) [3] | percent of injected dose localized in the lung (1 µg dose, 2 hours) (% of injected dose) [3] | percent of injected dose localized in the lung (1 µg dose, 8 hours) (% of injected dose) [3] | percent of injected dose localized in the lung (5 µg dose, 5 minutes) (% of the initial antibody dose) [3] | percent of injected dose localized in the lungs (5 µg dose, 30 minutes) (% of injected dose) [4] | percent of injected dose localized in the lungs (5 µg dose, 6 hours) (% of injected dose) [4] | Substance
1 | 3 | > 5 | – | – | – | – | – | – | – | OST-2 (Pharmingen), mouse monoclonal antibody that recognizes rat MadCam-1
2 | – | – | > 0.4 | 0.7 | 22 | 30 | 20 | 15 | 7 | OX-61 (Pharmingen), mouse monoclonal antibody specific for DPP-4
